Marks after values point to notes of the source that are not given here.
Legend:
[1] = system: SKOV3 cell invasion; test: SKOV3 invasion assay; type: cell-based, human; conditions: Lpathomab (15 mg/mL); 2 μM 14:0 LPA; n = 2
[2] = Surface plasmon resonance, 12:0 LPA on GLC sensor chip; type: binding
Method: (§1) All binding data were collected on a ProteOn optical biosensor (BioRad, Hercules Calif.). 12:0 LPA-thiol and 18:0 LPA-thiol were coupled to a maleimide modified GLC sensor chip (Cat. No 176-5011). First, the GLC chip was activated with an equal mixture of sulfo-NHS/EDC for seven minutes followed by a 7 minute blocking step with ethyldiamine. Next sulfo-MBS (Pierce Co., cat #22312) was passed over the surfaces at a concentration of 0.5 mM in HBS running buffer (10 mM HEPES, 150 mM NaCl, 0.005% tween-20, pH 7.4). LPA-thiol was diluted into the HBS running buffer to a concentration of 10, 1 and 0.1 uM and injected for 7 minutes producing 3 different density LPA surfaces (˜100, ˜300 and ˜1400 RU). Next, binding data for the humanized antibodies was collected using a 3-fold dilution series starting with 25 nM as the highest concentration (original stocks were each diluted 1 to 100). Surfaces were regenerated with a 10 second pulse of 100 mM HCl. All data were collected at 25° C. Controls were processed using a reference surface as well as blank injections. […] In order to extract estimates of the binding constants, data from the varying antibody concentrations were globally fit using 1-site and 2-site models. This produced estimates of the affinity for the bivalent (site 1) and monovalent site (site 2).

[3] = Surface plasmon resonance, 18:0 LPA on GLC sensor chip; type: binding
Method: as §1

[4] = LPA competition ELISA (C18:0 LPA coat); type: binding; conditions: LPC, PA, 14:0 and 18:1 LPA, cPA, PC
Method: The specificity of the humanized antibody was determined by competition ELISA. C18:0 LPA coating material was diluted to 0.33 ug/ml with carbonate buffer (100 mM NaHCO3, 33.6 mM Na2CO3, pH 9.5). Plates were coated with 100 ul/well of coating solution and incubated at 37° C. for 1 hour. The plates were washed 4 times with PBS ([…], pH 7.4) and blocked with 150 ul/well of PBS, 1% BSA, 0.1% tween-20 for 1 h at room temperature. The humanized, anti-LPA antibodies were tested against lipid competitors (14:0 LPA (Avanti, Cat. No 857120), 18:1 LPA (Avanti, Cat. No 857130), 18:1 LPC (Avanti, Cat. No 845875), cLPA (Avanti, Cat. No 857328), 18:1 PA (Avanti, Cat. No 840875), PC (Avanti, Cat. No 850454) at 5 uM, 2.5 uM, 1.25 uM, 0.625 uM, and 0.0 uM. The antibody was diluted to 0.5 ug/ml in PBS, 0.1% tween-20 and combined with the lipid samples at a 1:3 ratio of antibody to sample on a non-binding plate. The plates were washed 4 times with PBS and incubated for 1 hour at room temperature with 100 ul/well of the primary antibody/lipid complex. Next the plates were washed 4 times with PBS and incubated for 1 h at room temperature with 100 […] of HRP-conjugated goat anti-human antibody diluted 1:20,000 in PBS, 1% BSA, 0.1% tween-20. […] The optical density (OD) was measured at 450 nm using a Thermo Multiskan EX. […]

[5] = system: selected human cancer cell lines; test: LPA-induced cancer cell proliferation; type: cell-based; conditions: addition of anti-LPA mAb
Method: LPA is a potent growth factor supporting cell survival and proliferation by stimulation of Gi, Gq and G12/13 via GPCR-receptors and activation of downstream signaling events. Cell lines were tested for their proliferative response to LPA ([…]). Cell proliferation was assayed by using the cell proliferation assay kit from Chemicon (Temecula Calif.) (Panc-1) and the Cell-Blue titer from Pierce (Caki-1). Each data point is the mean of three independent experiments. […] Even though tumor-derived cells normally have high basal levels of proliferation, LPA appears to further augment proliferation in most tumor cell lines. Anti-LPA mAbs (B7 and B58) were assessed for the ability to inhibit LPA-induced proliferation in selected human cancer cell lines.

[6] = system: renal cell carcinoma (Caki-1) cells; test: Cell monolayer scratch assay, Caki-1; type: cell-based, human; conditions: mAb 10 μg/ml
Method: An important characteristic of metastatic cancers is that the tumor cells escape contact inhibition and migrate away from their tissue of origin. […] Accordingly, we tested the ability of anti-LPA mAb to block LPA-dependent cell migration in several human cancer cell lines by using the cell monolayer scratch assay. Cells were seeded in 96 well plates and grown to confluence. After 24 h of starvation, the center of the wells was scratched with a pipette tip. In this art-accepted “scratch assay,” the cells respond to the scratch wound in the cell monolayer in a stereotypical fashion by migrating toward the scratch and close the wound. Progression of migration and wound closure are monitored by digital photography at 10× magnification at desired timepoints. Cells were not treated (NT), treated with LPA ([…]) with or w/o mAb B7 (10 μg/ml) or an isotype matching non-specific antibody (NS) (10 μg/ml). In untreated cells, a large gap remains between the monolayer margins following the scratch. LPA-treated cells in contrast, have only a small gap remaining at the same timepoint, and a few cells are making contact across the gap.

[7] = system: B16-F10 murine melanoma; test: B16-F10 murine melanoma experimental lung metastasis; design: species or system C57BL/6 mice; conditions: mouse, in vivo
Method: Study: The highly metastatic murine melanoma (B16-F10) was used to examine the therapeutic effect of anti-LPA mAbs on metastasis in vivo. […] 4 week old female (C57BL/6) mice received an injection of B16-F10 murine melanoma tumor cells (100 uL of 5×10^4 cells/animal) via the tail vein. Mice (10 per group) were administered 25 mg/kg of the anti-LPA mAb (either B3 or B7) or saline every three days by i.p. injection. After 18 days, lungs were harvested and analyzed. The pulmonary organs are the preferred metastatic site of the melanoma cells, and were therefore closely evaluated for metastatic nodules. The lungs were inflated with 10% buffered formalin via the trachea, in order to inflate and fix simultaneously, so that even small foci could be detectable on histological examination. Lungs were separated into five lobes and tumors were categorized by dimension (large >5 mm; medium 1-4 mm; small <1 mm) and counted under a dissecting microscope. […] For animals treated with mAb B3, large tumors were reduced by 21%, medium tumors by 17% and small tumors by 22%. Statistical analysis by student's T-test gave a p<0.05 for number of small tumors in animals treated with mAb B3 vs saline.

B1: LT3000: Murine anti-LPA monoclonal antibody clone B7, IgG1k, renamed Lpathomab, also known as LT3000; hybridoma 504B7.1, ATCC PTA-8420 (antibody, V domains shown)
VH: QVQLQQSGAELVRPGTSVKVSCKASGYGFINYLIEWIKQRPGQGLEWIGLINPGSDYTNYNENFKGKATLTADKSSSTAYMHLSSLTSEDSAVYFCARRFGYYGSGNYFDYWGQGTTLTVSS
VL: DVVMTQTPLSLPVSLGDQASISCTSGQSLVHINGNTYLHWYLQKPGQSPKLLIYKVSNLFSGVPDRFSGSGSGTDFTLKISRVEAEDLGVYFCSQSTHFPFTFGTGTKLEIK
With B1 the “Invasion, % Inhibition (over LPA taken as 100)” value [1] was 95* %, the Kd ([2]; first value (site 1, bivalent), read-out: KD (C12)) was 0.027 nM and the Kd ([2]; value in parentheses (site 2, monovalent), read-out: KD (C12), value in parentheses) was 0.007 nM. For the same molecule, the Kd ([3]; first value (site 1, bivalent), read-out: KD (C18)) was 11 pM, the Kd ([3]; value in parentheses (site 2, monovalent), read-out: KD (C18), value in parentheses) was 5 pM and the cross-reactivity [4] was “no cross-reactivity”. For the same molecule, the “LPA-induced increase in proliferation” value [5] was “mitigated”, the LPA-stimulated migration [6] was “inhibitory effect” and the “metastatic spread of B16-F10 cells to lungs” value [7] was “reduced”.
